According to patent US20110008774A1 (CORNELL RESEARCH FOUNDATION, published 2011):
Numbering of substitutions follows the chain as printed.

B1: scFv13 variant S20 (scFv)
scFv: MADYKDDDDKGGSAEVQLVESGGGLVKPGGSLRLSCAASGFTFSNNSMNWVRQAPGKGLEWVSSISSSSSYIYYADFVKGRFTISRDNAKNSLYLQMNSLRAEDTAVYYCARSSTTIFGGGMDVWGRGTLVTVSSGGGGSGEGGSGGGGSQSVLTQPASVSGSPGQSITISCAGTSSDVGGYNYVSWYQQHPGKAPKLMIYEDSKRPSGVSNRFSGSKSGNTASLTISGLQAEDEADYYCSSYTTRSTRVFGGGTKLAVLGAAAEQKLISEGDLNGAAELHHHHHH
B2: scFv13 variant S23 (scFv)
scFv: B1 scFv with N46Y, V62I, A89V, T115I, E142G, P192L, D203G, P207S, G272E

Target: AMEF β-gal (normally inactive β-galactosidase variant, AMEF 959) (E. coli)
Experiment: cell-based or functional assay

Row | Binder | AMEF β-gal activation in vivo (whole cell X-gal hydrolysis, absorbance at 620 nm)
1 | B1 | ~2 fold over wt scFv13
2 | B2 | ~2 fold over wt scFv13
